Laboratory results from article doi:10.1101/2020.03.16.993006 (bioRxiv, 2020).
Like-named read-outs stand apart in the source and are kept apart here.

Legend:
[1] = target: human ferroportin (FPN), wild type, reconstituted in lipid nanodisc (human, UniProt Q9NP59); test: cryo-EM structure
[2] = target: Rhodamine green-hepcidin (human); test: fluorescence polarisation
[3] = target: Rhodamine green-hepcidin (human); test: fluorescence polarisation; remark: listed apart in the source
[4] = target: Rhodamine green-hepcidin (human); test: fluorescence polarisation; remark: listed apart in the source
[5] = target: Rhodamine green-hepcidin (human); test: fluorescence polarisation; remark: listed apart in the source

Row | Binder | binding result [1] | Kd [2] [nM] | Kd [3] [nM] | Kd [4] [nM] | Kd [5] [nM]
1 | Fab45D8 (Fab, V domains shown) VH: EVQLQESGPGLAKPSQTLSLTCSVTGSSITSDYWNWIRKFPGNKLEYMGYISYSGSTYYNPSLKSQISITRDTSKNHYYLQLNSVTTEDTATYYCARQGLRNWYFDVWGTGTTVTVSS VL: DIVLTQSPASLPVSLGQRATISCRASKSVSASAYSYMHWYQQKPGQPPKPLIYLASNLESGVPARFSGSGSGTDFTLNIHPVEEEDAATYYCQHNRELPYTFGGGTKLEIK | binds |  |  |  | 
2 | human ferroportin (FPN), wild type, reconstituted in lipid nanodisc (natural protein) MTRAGDHNRQRGCCGSLADYLTSAKFLLYLGHSLSTWGDRMWHFAVSVFLVELYGNSLLLTAVYGLVVAGSVLVLGAIIGDWVDKNARLKVAQTSLVVQNVSVILCGIILMMVFLHKHELLTMYHGWVLTSCYILIITIANIANLASTATAITIQRDWIVVVAGEDRSKLANMNATIRRIDQLTNILAPMAVGQIMTFGSPVIGCGFISGWNLVSMCVEYVLLWKVYQKTPALAVKAGLKEEETELKQLNLHKDTEPKPLEGTHLMGVKDSNIHELEHEQEPTCASQMAEPFRTFRDGWVSYYNQPVFLAGMGLAFLYMTVLGFDCITTGYAYTQGLSGSILSILMGASAITGIMGTVAFTWLRRKCGLVRTGLISGLAQLSCLILCVISVFMPGSPLDLSVSPFEDIRSRFIQGESITPTKIPEITTEIYMSNGSNSANIVPETSPESVPIISVSLLFAGVIAARIGLWSFDLTVTQLLQENVIESERGIINGVQNSMNYLLDLLHFIMVILAPNPEAFGLLVLISVSFVAMGHIMYFRFAQNTLGNKLFACGPDAKEVRKENQANTSVV |  | 2.5 | 210 | 7.8 | 7.7
